Our source for the Kd and phase separation of Dsk2 alone, saturation concentration (csat) against temperature (20 mM NaPhosphate pH 6.8, 150 mM NaCl, 7.5% PEG 8000, 0.5 mM EDTA) values is article PMC13083955.

Assay [1] concerns the target Dsk2 UBA (Saccharomyces cerevisiae) (UniProt P48510). The settings on record: cited from earlier work.
For assay [2], the target named is full-length Dsk2 (yeast (S. cerevisiae)) (UniProt P48510).

On to Dsk2 UBL (from UniProt P48510), for which the Kd in assay [1] was 80 µM.

On to “full-length Dsk2 (from UniProt P48510 1-373) (natural protein)”, for which the phase separation of Dsk2 alone, saturation concentration (csat) against temperature (20 mM NaPhosphate pH 6.8, 150 mM NaCl, 7.5% PEG 8000, 0.5 mM EDTA) in assay [2] amounted to 10 µM.
